The test deals with T1, CD20 (UniProt P11836 142-188, limits assumed).
T1 construct: Bought reagent
T1 chain (looked up): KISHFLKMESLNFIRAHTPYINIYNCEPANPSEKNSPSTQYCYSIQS
Nature of the test: BLI (Octet), antibody on Pro A probe, CD20 25-200 nM in solution. The method, then:
Antibody samples were dissolved in PBS with a working concentration of 10 μg/mL; CD20 (Beijing SinoBiological Co., Ltd.) was dissolved in PBS and gradiently diluted to concentrations of 25 nM, 50 nM, 75 nM, 100 nM, 150 nM, 200 nM respectively. The working volume was 200 μL.
The data diagram was fitted by OCTET system and data-processing software, and the intermolecular interaction between the antibody and the CD20 was calculated by the software, and shown in KD value.
Background: BLI is a label-free optical method that tracks binding on a fibre tip over time.

B1: WT Rituximab (antibody, human IgG1, kappa)
heavy: not shown
light: QIVLSQSPAILSASPGEKVTMTCRASSSVSYIHWFQQKPGSSPKPWIYATSNLASGVPVRFSGSGSGTSYSLTISRVEAEDAATYYCQQWTSNPPTFGGGTKLEIKRTVAAPSVFIFPPSDEQLKSGTASVVCLLNNFYPREAKVQWKVDNALQSGNSQESVTEQDSKDSTYSLSSTLTLSKADYEKHKVYACEVTHQGLSSPVTKSFNRGEC
notes: also called anti-CD20 wild-type antibody
As for B1, the dissociation constant (Kd) came out at 5.35 nM.

B2: anti-CD20 antibody mutant 166C (antibody, human IgG1, kappa)
heavy: not shown
light: QIVLSQSPAILSASPGEKVTMTCRASSSVSYIHWFQQKPGSSPKPWIYATSNLASGVPVRFSGSGSGTSYSLTISRVEAEDAATYYCQQWTSNPPTFGGGTKLEIKRTVAAPSVFIFPPSDEQLKSGTASVVCLLNNFYPREAKVQWKVDNALQSGNSQESVTECDSKDSTYSLSSTLTLSKADYEKHKVYACEVTHQGLSSPVTKSFNRGEC
In turn, B2 showed a dissociation constant Kd of 4.86 nM.

B3: anti-CD20 antibody mutant 124C (antibody, human IgG1, kappa)
heavy: not shown
light: QIVLSQSPAILSASPGEKVTMTCRASSSVSYIHWFQQKPGSSPKPWIYATSNLASGVPVRFSGSGSGTSYSLTISRVEAEDAATYYCQQWTSNPPTFGGGTKLEIKRTVAAPSVFIFPPSDECLKSGTASVVCLLNNFYPREAKVQWKVDNALQSGNSQESVTEQDSKDSTYSLSSTLTLSKADYEKHKVYACEVTHQGLSSPVTKSFNRGEC
In turn, B3 showed a dissociation constant (Kd) of 8.97 nM.

In general, Kd refers to the constant that tells how readily two partners part at equilibrium. Higher therefore signals a looser complex.

These data come from patent US20230211007A1 (published 2023).
